Where a chain is given by its changes, count along the chain named.
Columns and labels:
[1] = target: T1, PTPRD G203E K204E variant extracellular domain (human, UniProt P23468 21-1265); experiment: extracellular interaction screen: pentameric PTPRD variant ECD on ECD-Fc prey (FIG. 5L)
T1 construct: extracellular domain; also called G203E/K204E double mutant; IG2 mutant
T1 sequence (looked up): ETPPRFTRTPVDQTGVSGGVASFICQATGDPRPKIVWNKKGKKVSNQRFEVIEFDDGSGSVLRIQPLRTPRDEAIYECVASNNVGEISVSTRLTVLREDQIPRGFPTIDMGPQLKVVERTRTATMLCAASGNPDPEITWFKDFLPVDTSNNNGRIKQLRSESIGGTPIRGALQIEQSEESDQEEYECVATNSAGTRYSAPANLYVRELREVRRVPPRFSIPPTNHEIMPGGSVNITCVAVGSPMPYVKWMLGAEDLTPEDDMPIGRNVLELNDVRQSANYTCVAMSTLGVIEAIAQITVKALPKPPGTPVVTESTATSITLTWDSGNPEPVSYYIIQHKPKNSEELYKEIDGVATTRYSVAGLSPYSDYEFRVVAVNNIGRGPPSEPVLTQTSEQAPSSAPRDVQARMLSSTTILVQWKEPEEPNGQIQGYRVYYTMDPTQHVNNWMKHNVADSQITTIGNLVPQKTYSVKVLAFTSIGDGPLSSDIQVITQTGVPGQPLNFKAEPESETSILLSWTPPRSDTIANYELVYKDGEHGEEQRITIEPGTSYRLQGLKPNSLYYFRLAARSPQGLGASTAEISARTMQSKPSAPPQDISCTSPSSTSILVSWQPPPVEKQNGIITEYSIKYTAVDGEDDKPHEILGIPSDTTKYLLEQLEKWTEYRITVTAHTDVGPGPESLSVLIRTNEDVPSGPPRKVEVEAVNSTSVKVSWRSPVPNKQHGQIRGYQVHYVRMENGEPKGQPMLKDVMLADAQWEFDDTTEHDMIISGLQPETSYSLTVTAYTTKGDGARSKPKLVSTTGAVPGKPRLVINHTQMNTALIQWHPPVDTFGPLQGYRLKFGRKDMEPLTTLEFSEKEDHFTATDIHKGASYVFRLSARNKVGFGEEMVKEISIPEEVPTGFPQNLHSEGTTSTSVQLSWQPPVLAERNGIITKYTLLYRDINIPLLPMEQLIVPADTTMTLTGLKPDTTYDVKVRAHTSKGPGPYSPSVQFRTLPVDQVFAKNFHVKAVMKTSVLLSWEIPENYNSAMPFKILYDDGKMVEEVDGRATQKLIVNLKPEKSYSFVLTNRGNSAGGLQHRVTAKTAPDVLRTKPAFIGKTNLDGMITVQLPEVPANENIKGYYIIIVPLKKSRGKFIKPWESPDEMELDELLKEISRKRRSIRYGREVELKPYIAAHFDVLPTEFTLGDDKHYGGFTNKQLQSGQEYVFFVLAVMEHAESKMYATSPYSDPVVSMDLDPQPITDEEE

[2] = target: T2, PTPRD extracellular domain (wild type) (human, UniProt P23468 21-1265); experiment: SPR, LRFN4 ECD-Fc immobilized, PTPRD ectodomain-Fc as analyte
T2 construct: extracellular domain; Ectodomain-Fc in SPR; also called wt PTPRD; PTPRD ectodomain fused to an Fc tag
T2 sequence (looked up): T1 sequence (looked up) with E183G, E184K
Experimental: (§1) The indicated protein (expressed as an ECD-Fc fusion protein) was immobilized on a sensor chip and PTPRD (expressed as an ectodomain fused to an Fc tag) was injected at the indicated concentrations.

[3] = target: T2, PTPRD extracellular domain (wild type); experiment: SPR, ILRAPL1 (IL1RAPL1) ECD-Fc immobilized, PTPRD ectodomain-Fc as analyte
Experimental: as §1

[4] = target: T2, PTPRD extracellular domain (wild type); experiment: SPR, SLITRK1 ECD-Fc immobilized, PTPRD ectodomain-Fc as analyte
Experimental: as §1

[5] = target: T2, PTPRD extracellular domain (wild type); experiment: SPR, SLITRK4 ECD-Fc immobilized, PTPRD ectodomain-Fc as analyte
Experimental: as §1

[6] = target: T2, PTPRD extracellular domain (wild type); experiment: SPR, LRFN1 ECD-Fc immobilized, PTPRD ectodomain-Fc as analyte
Experimental: as §1

B1: LRFN4 extracellular domain (receptor, human, UniProt Q6PJG9 17-518, looked up)
chain: CPLPCVCQNLSESLSTLCAHRGLLFVPPNVDRRTVELRLADNFIQALGPPDFRNMTGLVDLTLSRNAITRIGARAFGDLESLRSLHLDGNRLVELGTGSLRGPVNLQHLILSGNQLGRIAPGAFDDFLESLEDLDLSYNNLRQVPWAGIGAMPALHTLNLDHNLIDALPPGAFAQLGQLSRLDLTSNRLATLAPDPLFSRGRDAEASPAPLVLSFSGNPLHCNCELLWLRRLARPDDLETCASPPGLAGRYFWAVPEGEFSCEPPLIARHTQRLWVLEGQRATLRCRALGDPAPTMHWVGPDDRLVGNSSRARAFPNGTLEIGVTGAGDAGGYTCIATNPAGEATARVELRVLALPHGGNSSAEGGRPGPSDIAASARTAAEGEGTLESEPAVQVTEVTATSGLVSWGPGRPADPVWMFQIQYNSSEDETLIYRIVPASSHHFLLKHLVPGADYDLCLLALSPAAGPSDLTATRLLGCAHFSTLPASPLCHALQAHVLGGTL
notes: extracellular domain; ECD-Fc; also called LFRN4
B1: no binding [1]; binds [2].

B2: IL1RAPL1 extracellular domain (receptor, human, UniProt Q9NZN1 19-357, looked up)
chain: LKVVTKRGSADGCTDWSIDIKKYQVLVGEPVRIKCALFYGYIRTNYSLAQSAGLSLMWYKSSGPGDFEEPIAFDGSRMSKEEDSIWFRPTLLQDSGLYACVIRNSTYCMKVSISLTVGENDTGLCYNSKMKYFEKAELSKSKEISCRDIEDFLLPTREPEILWYKECRTKTWRPSIVFKRDTLLIREVREDDIGNYTCELKYGGFVVRRTTELTVTAPLTDKPPKLLYPMESKLTIQETQLGDSANLTCRAFFGYSGDVSPLIYWMKGEKFIEDLDENRVWESDIRILKEHLGEQEVSISLIVDSVEEGDLGNYSCYVENGNGRRHASVLLHKRELMYT
notes: extracellular domain; ECD-Fc; also called ILRAPL1
B2: binds [3].

B3: SLITRK1 extracellular domain (receptor, human, UniProt Q96PX8 18-622, looked up)
chain: NVTGDVCKEKICSCNEIEGDLHVDCEKKGFTSLQRFTAPTSQFYHLFLHGNSLTRLFPNEFANFYNAVSLHMENNGLHEIVPGAFLGLQLVKRLHINNNKIKSFRKQTFLGLDDLEYLQADFNLLRDIDPGAFQDLNKLEVLILNDNLISTLPANVFQYVPITHLDLRGNRLKTLPYEEVLEQIPGIAEILLEDNPWDCTCDLLSLKEWLENIPKNALIGRVVCEAPTRLQGKDLNETTEQDLCPLKNRVDSSLPAPPAQEETFAPGPLPTPFKTNGQEDHATPGSAPNGGTKIPGNWQIKIRPTAAIATGSSRNKPLANSLPCPGGCSCDHIPGSGLKMNCNNRNVSSLADLKPKLSNVQELFLRDNKIHSIRKSHFVDYKNLILLDLGNNNIATVENNTFKNLLDLRWLYMDSNYLDTLSREKFAGLQNLEYLNVEYNAIQLILPGTFNAMPKLRILILNNNLLRSLPVDVFAGVSLSKLSLHNNYFMYLPVAGVLDQLTSIIQIDLHGNPWECSCTIVPFKQWAERLGSEVLMSDLKCETPVNFFRKDFMLLSNDEICPQLYARISPTLTSHSKNSTGLAETGTHSNSYLDTSRVSISVLVP
notes: extracellular domain; ECD-Fc
B3: binds [4].

B4: SLITRK4 extracellular domain (receptor, human, UniProt Q8IW52 19-618, looked up)
chain: DSDISVEICNVCSCVSVENVLYVNCEKVSVYRPNQLKPPWSNFYHLNFQNNFLNILYPNTFLNFSHAVSLHLGNNKLQNIEGGAFLGLSALKQLHLNNNELKILRADTFLGIENLEYLQADYNLIKYIERGAFNKLHKLKVLILNDNLISFLPDNIFRFASLTHLDIRGNRIQKLPYIGVLEHIGRVVELQLEDNPWNCSCDLLPLKAWLENMPYNIYIGEAICETPSDLYGRLLKETNKQELCPMGTGSDFDVRILPPSQLENGYTTPNGHTTQTSLHRLVTKPPKTTNPSKISGIVAGKALSNRNLSQIVSYQTRVPPLTPCPAPCFCKTHPSDLGLSVNCQEKNIQSMSELIPKPLNAKKLHVNGNSIKDVDVSDFTDFEGLDLLHLGSNQITVIKGDVFHNLTNLRRLYLNGNQIERLYPEIFSGLHNLQYLYLEYNLIKEISAGTFDSMPNLQLLYLNNNLLKSLPVYIFSGAPLARLNLRNNKFMYLPVSGVLDQLQSLTQIDLEGNPWDCTCDLVALKLWVEKLSDGIVVKELKCETPVQFANIELKSLKNEILCPKLLNKPSAPFTSPAPAITFTTPLGPIRSPPGGPVPLS
notes: extracellular domain; ECD-Fc
B4: binds [5].

B5: LRFN1 extracellular domain (receptor, human, UniProt Q9P244 32-536, looked up)
chain: QPCPGRCICQNVAPTLTMLCAKTGLLFVPPAIDRRVVELRLTDNFIAAVRRRDFANMTSLVHLTLSRNTIGQVAAGAFADLRALRALHLDSNRLAEVRGDQLRGLGNLRHLILGNNQIRRVESAAFDAFLSTVEDLDLSYNNLEALPWEAVGQMVNLNTLTLDHNLIDHIAEGTFVQLHKLVRLDMTSNRLHKLPPDGLFLRSQGTGPKPPTPLTVSFGGNPLHCNCELLWLRRLTREDDLETCATPEHLTDRYFWSIPEEEFLCEPPLITRQAGGRALVVEGQAVSLRCRAVGDPEPVVHWVAPDGRLLGNSSRTRVRGDGTLDVTITTLRDSGTFTCIASNAAGEATAPVEVCVVPLPLMAPPPAAPPPLTEPGSSDIATPGRPGANDSAAERRLVAAELTSNSVLIRWPAQRPVPGIRMYQVQYNSSVDDSLVYRMIPSTSQTFLVNDLAAGRAYDLCVLAVYDDGATALPATRVVGCVQFTTAGDPAPCRPLRAHFLGGTM
notes: extracellular domain; ECD-Fc; also called LFRN1
B5: binds [6].

From patent publication US20220119490A1 (Genentech, published 2022)
